In US9814672B2, “Echogenic vehicle for clinical delivery of plasminogen activator and other fibrin-binding therapeutics to thrombi” (priority 2007, dated 2017):
Where two headings read alike, the source gives them in different places.

Columns and labels:
fibrin [1] = molecular target: T1, fibrin (Homo sapiens, UniProt P02671+P02675+P02679); test: Two-stage fibrin pad ELISA, Scatchard and van't Hoff analysis; format: binding; settings: for Avidity: Kassoc × no. ligand molecules/liposome; for Kassoc: detergent-treated preparation
T1 construct: purchased Calbiochem (EMD Biosciences, Inc., La Jolla, Calif.)
T1 sequence (P02671 36-629 limits assumed): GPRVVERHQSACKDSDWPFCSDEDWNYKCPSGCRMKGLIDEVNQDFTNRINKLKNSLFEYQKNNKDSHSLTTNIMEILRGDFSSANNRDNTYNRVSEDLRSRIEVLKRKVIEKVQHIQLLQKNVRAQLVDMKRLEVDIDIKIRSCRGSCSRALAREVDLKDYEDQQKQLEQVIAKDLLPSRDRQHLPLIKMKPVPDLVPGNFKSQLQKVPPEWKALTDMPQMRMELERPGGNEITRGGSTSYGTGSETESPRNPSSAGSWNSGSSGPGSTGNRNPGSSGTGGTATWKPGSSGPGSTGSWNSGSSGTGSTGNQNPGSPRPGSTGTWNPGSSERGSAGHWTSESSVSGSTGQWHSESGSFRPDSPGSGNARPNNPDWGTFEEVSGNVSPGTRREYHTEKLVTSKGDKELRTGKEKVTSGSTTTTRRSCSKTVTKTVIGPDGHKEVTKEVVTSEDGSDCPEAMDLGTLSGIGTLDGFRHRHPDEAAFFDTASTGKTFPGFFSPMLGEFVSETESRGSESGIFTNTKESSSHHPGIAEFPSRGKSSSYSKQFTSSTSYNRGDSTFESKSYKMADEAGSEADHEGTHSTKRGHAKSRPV
T1 sequence (P02675 45-491 limits assumed): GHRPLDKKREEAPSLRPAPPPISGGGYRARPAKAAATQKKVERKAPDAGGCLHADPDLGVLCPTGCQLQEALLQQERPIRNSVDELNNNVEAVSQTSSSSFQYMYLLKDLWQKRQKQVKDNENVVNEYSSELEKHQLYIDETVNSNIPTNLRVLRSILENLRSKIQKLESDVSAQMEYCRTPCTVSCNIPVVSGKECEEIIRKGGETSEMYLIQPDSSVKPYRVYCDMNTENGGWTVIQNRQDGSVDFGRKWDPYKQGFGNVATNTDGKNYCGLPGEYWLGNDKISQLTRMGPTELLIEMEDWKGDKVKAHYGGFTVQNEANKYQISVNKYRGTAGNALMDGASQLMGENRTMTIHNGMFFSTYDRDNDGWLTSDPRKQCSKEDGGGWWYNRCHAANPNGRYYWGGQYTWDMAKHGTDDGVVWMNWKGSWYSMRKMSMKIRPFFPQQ
T1 sequence (P02679 27-437 isoform P02679-2 limits assumed): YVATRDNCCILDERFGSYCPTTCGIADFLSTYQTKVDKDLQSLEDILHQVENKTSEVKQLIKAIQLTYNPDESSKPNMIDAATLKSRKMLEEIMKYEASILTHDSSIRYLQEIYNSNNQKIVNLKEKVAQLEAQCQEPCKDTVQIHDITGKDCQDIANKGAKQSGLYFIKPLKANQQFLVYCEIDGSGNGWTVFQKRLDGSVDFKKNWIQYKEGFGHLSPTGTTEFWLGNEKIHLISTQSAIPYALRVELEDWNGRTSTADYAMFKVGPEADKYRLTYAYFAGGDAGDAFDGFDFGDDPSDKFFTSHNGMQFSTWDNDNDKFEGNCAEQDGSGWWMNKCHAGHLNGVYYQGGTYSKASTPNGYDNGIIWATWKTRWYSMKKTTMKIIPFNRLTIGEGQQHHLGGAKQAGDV
Experimental: Added 100 μl 0.2% BSA/PBS to each well and incubated at 37° C. for 1 hour. All subsequent incubations were also at 37° C. Aspirated the wells and washed the plate 3× with PBS-T. Added Activase dilutions (10, 5, 2.5, 1.25, and 0.625 μg/ml PBS-T) to replicate wells ([…]). Incubated for 2 hours. Removed the contents of each well and pooled all samples within each dilution. Stored pooled samples at 4° C. For tPA-ELIP dilutions (in PBS), the third wash before adding the samples was with PBS. Stored the pooled tPA-ELIP samples in polypropylene tubes.
Added monoclonal anti-tPA capture antibody (Ab) (5 μg/ml coating buffer; […]) to rows B, C, E and G of a fresh microplate. Incubated in a humidified chamber at 4° C. overnight. All subsequent incubations were in humidified chambers at 37° C. at volumes of 50 μl/well, followed by aspiration of wells and 3× washes with PBS-T. Blocked all rows with conjugate buffer for 1 hour. Added tPA standards (50, 25, 12.5, 6.25 and 3.13 ng/ml) and pooled sample dilutions (in PBS-T) in duplicate to sample (B, C, E, G) and background (A, D, F, H) wells. Incubated for 2 hours. Added secondary detection Ab (10 μg sheep anti-tPA/ml 0.1% BSA in PBS-T) to all wells and incubated 1 hour, followed by a conjugate incubation (3,000× diluted with conjugate buffer; 1 hour). Added 50 μl of substrate buffer+500 of substrate (1 tablet/5 ml substrate buffer) to each well. Incubated at 37° for 15 minutes. Immediately quenched with 5 μl of 1M sodium hydroxide/well. Read the plate at 405 nm. Determined net absorbance (A405) by subtracting background OD from sample OD (e.g., B4-A4 or E7-F7).
Calculated the undiluted tPA concentrations of each pooled sample from the standard curve. These represented the free fractions ([F]) of the sample dilutions after equilibrium incubation with fibrin. Obtained the bound concentrations ([B]) by subtracting the free values from the total tPA concentration of the starting dilutions. Prepared Scatchard plots by plotting [B] (x-axis) vs. B/F (y-axis). The slope=−Kassoc and the y-intercept=Kassoc[n], where [n] was the concentration of exposed tPA binding sites on the fibrin pads.
Dilutions of untreated, sham-treated (control) and PPACK-treated (tPA(P)) tPA, as well as tPA(P) conjugated to ELIP (tPA(P)-ELIP), were incubated on replicate fibrin pads, prepared in microplate wells according to a modification of the method of Edgell et al. (1996). Human thrombin was added to a solution of 0.5 mg/ml of human fibrinogen in 0.02M phosphate-buffered saline, pH 7.4 (PBS), to a final concentration of 0.125 IU thrombin/ml; 100 μl of this solution was immediately added to each well and incubated at 37° C. for 45 minutes, followed by overnight drying of the plate at 45° C. After incubation with 100 μl/well of 0.2% BSA in PBS for 1 hour, samples (100 μl/well) were incubated for 2 hours at 37° C. For thermodynamic analyses, this incubation was performed at three temperatures (5, 24 and 37° C.). In order to determine the concentration of free tPA remaining in solution after incubation of tPA with fibrin, from which the concentration of bound tPA could be calculated for Scatchard analysis, the contents of duplicate wells were recovered, pooled and subsequently assayed for immunoreactive tPA in a standard quantitative sandwich ELISA.
Briefly, Nunc MaxiSorp microtiter plates were coated with 5 μg/ml of a monoclonal anti-tPA capture antibody (Ab) in 0.05M sodium bicarbonate, pH 9.6, overnight at 4° C. All incubation volumes were 50 μl/well. One-half of wells were left uncoated for determination of nonspecific binding. After aspirating well contents, all wells were blocked with conjugate buffer (1% BSA in 0.05M Tris buffer, pH 8.0, with 0.02% sodium azide) for 1 hour. From this point, all incubations were at 37° C. Each incubation was followed by aspiration of well contents and washes (3×) with PBS-T (PBS with 0.05% Tween 20). […]

[2] = tPA enzyme activity after PPACK inactivation, paranitroanilide-substrate method; format: biochemical; settings: S.E., n=3
Experimental: Reconstituted tPA was incubated with a fivefold molar excess of PPACK in 0.2 M L-arginine in 0.05M phosphate buffer, pH 7.2, with 0.01% Tween 20 for 1 hour at room temperature, followed by dialysis against reaction buffer to remove unreacted PPACK. A control preparation was carried through the procedure without PPACK and all procedures involving PPACK were protected from light. Enzyme activity in PPACK-treated and control tPA preparations was measured with a […] paranitroanilide-substrate method (Ranby and Wallen, 1981).

fibrin [3] = molecular target: T1, fibrin; test: Two-stage fibrin pad ELISA, Scatchard and van't Hoff analysis; settings: undiluted fresh-frozen rabbit serum, 37° C.; read-out: binding affinity (KD) in serum

For Fibrinogen [reference compound], the cross-reactivity with fibrin (fibrin [1]; competition with tPA samples, Example 12) was 5%.
For “Sham (Control): tPA control preparation carried through the inactivation procedure without PPACK [reference compound]”, the “Percent Starting Activity” value [2] was 99.8% and the Kd (fibrin [1]; S.E., n=3, read-out: High-Affinity KD @ 37° C.) was 5.92 nM.
In the case of “tPA(P)-ELIP: PPACK-inactivated tPA conjugated by thioether linkage to MPB-ELIP (PC:MPB-PE:DPPG:CH 69:8:8:15); made without detergent or with 0.01% Tween 20”, the Avidity (fibrin [1]; +Tween 20) is reported as 0.151 M^−1/LIP × 10^12, the Avidity (fibrin [1]; No Detergent) is reported as 0.480 M^−1/LIP × 10^12 and the “ΔS°” value (fibrin [1]; high affinity only) is reported as “+14.7 cal/mole°”. For the same substance, the “ΔG°” value (fibrin [1]; high affinity only, 278 K) was -11.1 kcal/mol, the Kassoc (fibrin [1]; high affinity only, 278 K) was 5.83e+08 M⁻¹ and the “ΔG°” value (fibrin [1]; high affinity only, 297 K) was -11.5 kcal/mol. The Kassoc (fibrin [1]; high affinity only, 297 K) was 3.01e+08 M⁻¹, the “ΔG°” value (fibrin [1]; high affinity only, 310 K) was -11.6 kcal/mol and the Kassoc (fibrin [1]; high affinity only, 310 K) was 1.51e+08 M⁻¹. For the same substance, the “ΔH°” value (fibrin [1]; high affinity only, van't Hoff plot) was -7.08 kcal/mol, the Kd (fibrin [1]; thiolation buffers: +Tween 20, read-out: KD @ 37° C.) was 6.62 nM and the Kd (fibrin [1]; thiolation buffers: No Detergent, read-out: KD @ 37° C.) was 1.9 nM. For the same substance, the Kd (fibrin [3]) was 3.91 nM.
